Experiment [1] deals with T1, hFc-hC3d fusion protein (human, UniProt P01024 1002-1303, limits assumed).
T1 construct: domain: C3d; also called immobilized hC3d; not shown: human IgG Fc (hFc), captured by an anti-human IgG CH2 / Fcγ mAb
Nature of the experiment: SPR (Biacore X100), Fab over captured hFc-hC3d. The procedure:
(§1) Kinetic and thermodynamic parameters characterizing the binding of purified Fabs to hC3d or mC3d was performed by surface plasmon resonance (SPR) in a Biacore X100 instrument (GE Healthcare). Using mouse anti-human IgG CH2 mAb immobilized on a CM5 sensor chip, hFc-hC3d or hFc-mC3d fusion proteins were captured at a density <400 RU. Each sensor chip included an empty flow cell for instantaneous background subtraction. All binding assays used 1×HBS-EP+ running buffer (10 mM HEPES, 150 mM NaCl, 3 mM EDTA (pH 7.4), and 0.05% (v/v) Surfactant P20) at a flow rate of 30 μL/min. […] Calculation of association (kₒₙ) and dissociation (koff) rate constants were based on a 1:1 Langmuir binding model. The equilibrium dissociation constant (KD) was obtained by the formula KD=koff/kₒₙ.
A general note: In SPR one partner is held on a chip, and binding of the other changes the refractive index at the surface.

Experiment [2] has as its target T2, hFc-mC3d fusion protein (human; mouse, UniProt P01027 1002-1303, limits assumed).
T2 construct: domain: C3d; not shown: human IgG Fc (hFc), captured by an anti-human IgG CH2 mAb
The experiment can be described thus: SPR (Biacore X100), Fab over captured hFc-mC3d. The method, then: as §1

Experiment [3] addresses T3, full length human C3 present in plasma (human, UniProt P01024 23-1663).
T3 construct: mature; Not purified: it stood in the assay as dilutions of normal human serum; also called full-length, soluble C3; C3 in NHS
Nature of the experiment: ELISA, competition; His-tagged Fab (1 ug/mL) on zymosan opsonized with human C3 fragments in the presence of normal human serum (printed PNHCS) at 1/10, 1/50, 1/250 as source of full-length C3; normalized to media without serum.
Experimental: Zymosan particles opsonized with human C3 fragments were suspended in media with indicated dilutions of NHS (1/10, 1/50 and 1/250) prior to addition of His-tagged anti-C3d Fab antibodies at 1 μg/mL. Mouse anti-His mAb conjugated with HRP was used to determine the binding signal of each Fab by ELISA. Data is normalized to media control containing no NHS.
(§2) C3-opsonized zymosan particles (1e6) were incubated with 100 μL of 1 ug/mL His-tagged Fabs in a 96-well V-bottom plate at 37° C. for 1 h. After three washes with PBST (0.05% v/v Tween 20 in PBS), 100 μL of mouse anti-His tag mAb conjugated to horse radish peroxidase (HRP) (R&D Systems, Minneapolis, MN) at 1:1000 dilution in 1% (w/v) BSA/DPBS was added to detect bound Fabs using 2,2′-azino-bis (3-ethylbenzthiazoline)-6-sulfonic acid (Roche/Milipore Sigma, St. Louis, MO) as substrate. The absorbance was measured at 405 nm using a SpectraMax M5 microplate reader and SoftMax Pro software (Molecular Devices, LLC, San Jose, CA). To test for the potential of C3 in NHS to block binding of the mAbs to C3-fragment opsonized zymosan, serial dilutions of NHS were premixed with the opsonized zymosan particles prior to addition of his-tagged Fabs and following the procedure described above.

Experiment [4] addresses T4, human complement protein C3d (human, UniProt P01024 1002-1303).
T4 construct: domain: C3d; the 30 min deposits on zymosan are a mixture of C3b/iC3b/C3d that the text calls C3d; also called hC3d; human C3d
The experiment can be described thus: flow cytometry; His-tagged Fab on zymosan particles opsonized with human serum (C3b/iC3b/C3d); detection AF488 mouse anti-His mAb. On the technique in general: Flow cytometry measures light scatter and fluorescence of single cells or particles in a stream.
Experimental: as §2
The binding of rabbit antibodies (Fabs) was detected by flow cytometry following the same procedure described above except using a mouse anti-His tag mAb conjugated to AF488 (Qiagen, Valencia, CA).

T2 sequence (P01027 1002-1303 limits assumed): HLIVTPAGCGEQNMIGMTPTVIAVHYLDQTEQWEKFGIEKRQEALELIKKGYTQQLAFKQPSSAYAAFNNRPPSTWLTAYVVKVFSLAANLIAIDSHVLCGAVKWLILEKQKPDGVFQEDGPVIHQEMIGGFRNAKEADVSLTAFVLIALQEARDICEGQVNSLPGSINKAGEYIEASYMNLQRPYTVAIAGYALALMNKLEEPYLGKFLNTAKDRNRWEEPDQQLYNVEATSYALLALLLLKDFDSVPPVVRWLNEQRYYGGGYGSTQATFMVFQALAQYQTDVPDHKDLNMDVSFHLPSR

B1: Ab3 Fab (His-tagged rabbit/human chimeric anti-C3d Fab) (Fab, V domains shown)
VH: QKQLVESGGRLVTPGGSLTLTCTISGIDLNTYGMTWVRQAPGKGLEYIGIIVSSGNTYYANWAQGRFTISKTSTTVDLKMTSLTASDTATYFCARGLGRAYSSGYGMDGWGPGTLVTVSS
VL: DPVLTQTPSSTSAAVGGTVTIKCQASQNIYTSLAWYQQKPGQPPKLLIYGASNLASGVPSRFKGSRSGTEYTLTISGVEREDAATYYCLGSYTQIDTTFGGGTKLEIK
notes: Fab with rabbit Vκ/human Cκ/rabbit VH, His-tagged; also called Ab3 (κ)
In experiment [1], B1 gave an equilibrium dissociation constant (Kd) of 13.3 nM, a koff of 0.00126 s⁻¹ and an association rate constant (kon) of 94600 M⁻¹ s⁻¹. In experiment [2], the Kd was 97.6 nM, the koff came to 0.0227 s⁻¹ and the on-rate (kon) was 232000 M⁻¹ s⁻¹.

B2: Ab2 Fab (His-tagged rabbit/human chimeric anti-C3d Fab) (Fab, V domains shown)
VH: QSVEESGGRLVTPGTPLTLTCTVSGFSLSSYAMTWVRQAPGKGLEWIGVIGTSGMRYYANWAKGRFTISKTSTTVDLKITSPTTEDTATYFCARANFYVGNDESTDAFDPWGPGTLVTVSS
VL: ALVMTQTPPSLSASVGETVRIRCLASEDIYNTISWYQQKPGKPPTLLIYGASNLKSGVPPRFSGSGSGTDYTLTIGGVQSEDAATYYCLGGYSYSSTGLTFGAGTKVEIK
notes: Fab with rabbit Vκ/human Cκ/rabbit VH, His-tagged; also called Ab2 (κ)
In the case of B2, in experiment [1], the affinity, expressed as Kd, was 3.35 nM; the koff is 0.00054 s⁻¹; the kon amounted to 162000 M⁻¹ s⁻¹. In experiment [2], this molecule displayed a dissociation constant Kd of 9.04 nM, a koff of 0.00174 s⁻¹ and a kon of 193000 M⁻¹ s⁻¹.

B3: Ab5 Fab (His-tagged rabbit/human chimeric anti-C3d Fab) (Fab, V domains shown)
VH: QSLEESGGRLVTPGTPLTLTCTVSGFSLSTYTLGWVRQAPGKGLEYIGWIDSSGSAYYASWAKGRFTISKASSTTVDLKMAGLTTEDTATYFCASGNTGGDPLYYGMDPWGPGTLVTVSS
VL: DPVLTQTPSSTSAAVGGTVTIKCQASQNIGRWLAWYQQKPGQPPKLLIYRASDLASGVPSRFKGSGSGTQFTLTISGVQREDAATYYCLGSYSSSDSAFGGGTEVVVK
notes: Fab with rabbit Vκ/human Cκ/rabbit VH, His-tagged; also called Ab5 (κ)
In experiment [1], B3 yielded a dissociation constant (Kd) of 0.99 nM, a koff of 0.00014 s⁻¹ and a kon of 141000 M⁻¹ s⁻¹. In addition, in experiment [2], binding was put at a Kd of 22.9 nM, the koff was found to be 0.00568 s⁻¹ and the kon came to 248000 M⁻¹ s⁻¹.

B4: Ab4 Fab (His-tagged rabbit/human chimeric anti-C3d Fab) (Fab, V domains shown)
VH: QSLEESGGRLVTPGTPLTLTCTVSGFSLSRYTMAWVRQAPGKGLEYIGWIDSSGSTYYASWAKGRFTISKTSSTTVDLKMTSLTTEDTATYFCASGNDGGDPLYYGMDPWGPGTLVTVSS
VL: DGVMTQTPSSTSAAVGGTVTIKCQASQSIRSWLSWYQQKPGQPPKLLIYEASKLASGVPSRFKGSRSGTEYTLAISGVQREDAATYYCLGSIASDDTAFGAGTNVEIK
notes: Fab with rabbit Vκ/human Cκ/rabbit VH, His-tagged; also called Ab4 (κ)
In experiment [1], B4 displayed a Kd of 3.1 nM, a koff of 0.00028 s⁻¹ and an association rate constant (kon) of 90900 M⁻¹ s⁻¹. For the same molecule, in experiment [2], the Kd turned out to be 132 nM, the dissociation rate constant (koff) stood at 0.00801 s⁻¹ and the kon turned out to be 60600 M⁻¹ s⁻¹.

B5: Ab1 Fab (His-tagged rabbit/human chimeric anti-C3d Fab) (Fab, V domains shown)
VH: QSVEESRGRLVTPGTPLTLTCTVSGIDLSSSAITWVRQAPGKGLEWIGMISTDGATYYANWAKGRFTFSKTSTTADLKITSPTTEDTATYFCARGLTNFSIWGPGTLVTVSS
VL: QPVLTQSPSASAALGASAKLTCTLSSAHKTYTIAWYQQQPGESPRYLMLLKSDGSYTRGPGVPDRFSGSSSGADRYLIIPSVQADDEAGYYCGADYNGGYVFGGGTQLTVTG
notes: Fab from the phage display vector pC3C with rabbit Vλ/human Cλ/rabbit VH, His-tagged; also called Ab1 (λ)
On to B5, for which the binding result is “no binding (tested: serum dilution 1/10)” in experiment [3] and “binds” in experiment [4].

As usually defined, the Kd is a measure of binding affinity in units of concentration. A higher Kd goes with a looser complex. As usually defined, the koff is the first-order rate constant of dissociation. Read a low koff as a long-lived complex. As a reminder, the kon is the rate constant with which the complex forms. A higher kon goes with faster complex formation.

For the origin of these results see patent US20260022165A1 (US Dept. of Health and Human Services, published 2026).
